Results as given in patent US9453226B2, “Protection of cells from Alu-RNA-induced degeneration and inhibitors for protecting cells” (UNIVERSITY OF KENTUCKY RESEARCH FOUNDATION, priority 2011, dated 2016).

What was measured:
RPE = assay: AAV1-BEST1-Cre-induced RPE degeneration in Dicer1 f/f mice; format: in vivo; settings: peptide intravitreous
Protocol: Subretinal injections (1 μL) in mice were performed using a Pico-Injector (PLI-100, Harvard Apparatus). In vivo transfection of plasmids coding for two different Alu sequences (pAlu) or empty control vector (pNull) (Bennett et al., 2008; Kaneko et al., 2011; Shaikh et al., 1997) was achieved using 10% Neuroporter (Genlantis). AAV1-BEST1-Cre (Alexander and Hauswirth, 2008) or AAV1-BEST1-GFP were injected at 1.0×10^11 pfu/mL and in vitro transcribed Alu RNA was injected at 0.3 mg/mL. […]

Caspase-1 = biological target: T1, Caspase-1 (Homo sapiens, UniProt P29466); assay: Caspase-1 activation in human RPE cells (Western blot p20, Caspalux substrate cleavage); format: cell-based; settings: for Alu RNA-induced Caspase-1 substrate cleavage: Caspalux fluorescent substrate
T1 construct: Primary human RPE cells were isolated as previously described; endogenous in cells; host or cells: primary human RPE cells
T1 sequence (P29466 120-297 limits assumed): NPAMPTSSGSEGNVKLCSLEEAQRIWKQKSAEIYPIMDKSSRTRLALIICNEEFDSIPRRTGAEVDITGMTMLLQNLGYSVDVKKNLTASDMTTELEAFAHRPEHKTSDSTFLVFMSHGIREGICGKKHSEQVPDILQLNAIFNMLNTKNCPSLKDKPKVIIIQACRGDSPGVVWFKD
T1 sequence (P29466 317-404 limits assumed): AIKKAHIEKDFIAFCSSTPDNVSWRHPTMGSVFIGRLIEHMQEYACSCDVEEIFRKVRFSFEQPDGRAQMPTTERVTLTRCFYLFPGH
Protocol: Protein abundance was assessed by Western blot analysis using antibodies against Caspase-1 (1:500; Invitrogen), pIRAK1 (1:500; Thermo Scientific), pIRAK4 (1:500, Abbomax), PYCARD (1:200, Santa Cruz Biotechnology), NLRP3 (1:500, Enzo Life Sciences) and Vinculin (1:1,000; Sigma-Aldrich). Caspase-1 activity was visualized using Caspalux1 E1D2 (Oncolmmunin) according to manufacturer's instructions.
Tissues or cells were homogenized in lysis buffer (10 mM Tris base, pH 7.4, 150 mM NaCl, 1 mM EDTA, 1 mM EGTA, 1% Triton X-100, 0.5% NP-40, protease and phosphatase inhibitor cocktail (Roche)). Protein concentrations were determined using a Bradford assay kit (Bio-Rad) with bovine serum albumin as a standard. Proteins (40-100 μg) were run on NuPAGE Bis-Tris gels (Invitrogen) and transferred to Immun-Blot PVDF membranes (Bio-Rad). Cells were scraped in hot Laemmli buffer (62.5 mM Tris base, pH 6.8, 2% SDS, 5% 2-Mercaptoethanol, 10% Glycerol, 0.01% Bromophenol Blue). Samples were boiled and run on 4-20% NuPAGE Tris-Glycine gels (Invitrogen). The transferred membranes were blocked for 1 h at RT and incubated with antibodies against human Caspase-1 (1:500; Invitrogen), mouse Caspase 1 (1:500; MBL), NLRP3 (1:1000; Enzo Life Sciences), PYCARD (1:1000, RayBiotech), phospho-IRAK1 (S376) (1:500, Thermo Scientific), phospho-IRAK4 (T345) (1:500, AbboMax), DICER1 (1:2,000; Bethyl), MyD88 (1:1,000; Cell Signaling), and mouse IL-18 (1:200; MBL) at 4° C. overnight. Protein loading was assessed by immunoblotting using an anti-Vinculin antibody (1:1,000; Sigma-Aldrich). The secondary antibodies were used (1:5,000) for 1 h at RT. The signal was visualized by enhanced chemiluminescence (ECL plus) and captured by VisionWorksLS Image Acquisition and Analysis software (Version 6.7.2, UVP, LLC).
Caspase-1 activity. Caspase-1 activity was visualized by incubating cells with Caspalux1E1D2 reagent (Oncolmmunin) according to the manufacturer's instructions. Caspalux1E1D2 signal was quantified reading the fluorescence (excitation 552 nm, emission 580 nm) using a Synergy 4 reader (Biotek). Quantification of fluorescence from images was performed by converting images into grayscale in Adobe Photoshop CSS, and measuring the integrated density of black and white images using ImageJ software (NIH) (Bogdanovich et al., 2008).

DRQIKIWFQNRRMKWKKRDVLPGT [MyD88 inhibitory peptide]
AAV1-BEST1-Cre-induced RPE degeneration (RPE): blocked
Alu RNA-induced Caspase-1 substrate cleavage (Caspase-1): does not reduce
Alu RNA-induced Caspase-1 activation (p20 subunit) (Caspase-1; Western blot): unaffected

Z-WEHD-FMK
AAV1-BEST1-Cre-induced RPE degeneration (RPE): blocked
Alu RNA-induced Caspase-1 substrate cleavage (Caspase-1; listed as Caspase-1-inhibitory peptide): blocked Alu RNA-induced substrate cleavage
Alu RNA-induced Caspase-1 substrate cleavage (Caspase-1; listed as Caspase-1 inhibitor peptide): blocks
